This note sets out measurements from patent US20120148571A1 (Ablynx, published 2012).

For this assay, the target named is T1, human serum albumin (human, UniProt P02768 25-609).
T1 construct: also called HSA; humans serum albumin
Put plainly: SPR (Biacore), human serum albumin immobilized on CM5 chip, periplasmic Nanobody preparation injected in running buffer of pH 5, pH 6, pH 7 or HBS-EP+. (In general: SPR reads the build-up and loss of mass on a sensor chip optically.)

Description: Human serum albumin is immobilized on a CM5 sensor chip surface via amine coupling using NHS/EDC for activation and ethanolamine for deactivation (Biacore amine coupling kit)
Approximately 1000 RU of cynomolgus and humans serum albumin respectively is immobilized. Experiments are performed at 25° C. […] This mixture is brought to pH7, pH6 and pH5 by adding HCl or NaOH (dependent on the pH of the mixture measured). Standard buffer HBS-EP+Periplasmic extracts or purified Nanobodies are diluted in running buffers of pH7, pH6 and pH5. The samples are injected for 1 min at a flow rate of 45 ul/min over the activated and reference surfaces. Those surfaces are regenerated with a 3 s pulse of glycine-HCl pH1.5+0.1% P20. Evaluation is done using Biacore T100 evaluation software.

B1: Nanobody 4A1 (VHH)
VHH: EVQLVESGGGLVQPEGSLRLSCRASGSIFSINTMGWYRQPPGKEREFVARIYPGITHYADSVKGRFTISRDNAKNTVYLQMNSLKPEDTAVYYCFYYYDDRNYWGEGTLVTVSS
notes: Injected as a periplasmic preparation of soluble Nanobody
Take B1: the binding result is recorded as “binds”.
